Values belong to the sequence of their own block, whether it stands above or below them.
Assays:
HLA-A*03:01 [1] = assay: IEDB peptide-MHC binding, purified MHC/competitive/fluorescence; filed as Kd, often an IC50 or EC50 that approximates it; ≥ and ≤ were set here for values at or beyond the usual limits of such assays
HLA-B*07:02 [2] = assay: IEDB peptide-MHC binding, purified MHC/competitive/radioactivity; filed as Kd, often an IC50 or EC50 that approximates it; ≥ and ≤ were set here for values at or beyond the usual limits of such assays; conditions: source organism: SARS coronavirus Tor2
HLA-B*35:01 = assay: as above; conditions: source organism: SARS coronavirus Tor2
HLA-B*51:01 = assay: as above; conditions: source organism: SARS coronavirus Tor2
HLA-B*53:01 = assay: as above; conditions: source organism: SARS coronavirus Tor2
HLA-B*54:01 = assay: as above; conditions: source organism: SARS coronavirus Tor2
HLA-A*02:01 [3] = assay: as above
HLA-A*02:01 [4] = assay: IEDB peptide-MHC binding, purified MHC/direct/fluorescence; filed as Kd, often an IC50 or EC50 that approximates it; ≥ and ≤ were set here for values at or beyond the usual limits of such assays
HLA-B*15:01 = assay: as above
HLA-B*08:01 [5] = assay: IEDB peptide-MHC binding, purified MHC/competitive/radioactivity; filed as Kd, often an IC50 or EC50 that approximates it; ≥ and ≤ were set here for values at or beyond the usual limits of such assays
HLA-B*08:01 [6] = assay: IEDB peptide-MHC binding, purified MHC/direct/fluorescence; filed as Kd, often an IC50 or EC50 that approximates it; ≥ and ≤ were set here for values at or beyond the usual limits of such assays
HLA-B*27:05 = assay: as above
HLA-A*02:01 [7] = assay: IEDB peptide-MHC binding, purified MHC/competitive/fluorescence; ≥ and ≤ were set here for values at or beyond the usual limits of such assays; conditions: source organism: Zaire ebolavirus
HLA-A*11:01 [8] = assay: as above
HLA-A*24:02 = assay: as above; conditions: source organism: Zaire ebolavirus
HLA-A*02:02 = assay: IEDB peptide-MHC binding, purified MHC/competitive/radioactivity; filed as Kd, often an IC50 or EC50 that approximates it; ≥ and ≤ were set here for values at or beyond the usual limits of such assays
HLA-A*02:03 = assay: as above; conditions: source organism: Trypanosoma cruzi
HLA-A*02:06 = assay: as above
HLA-A*68:02 = assay: as above
HLA-B*07:02 [9] = assay: IEDB peptide-MHC binding, purified MHC/direct/fluorescence; filed as Kd, often an IC50 or EC50 that approximates it; ≥ and ≤ were set here for values at or beyond the usual limits of such assays
HLA-A*02:01 [10] = assay: IEDB peptide-MHC binding, purified MHC/competitive/fluorescence; filed as Kd, often an IC50 or EC50 that approximates it; ≥ and ≤ were set here for values at or beyond the usual limits of such assays; conditions: source organism: Pan troglodytes
HLA-B*27:03 = assay: as above; conditions: source organism: Pan troglodytes
HLA-B*46:01 = assay: IEDB peptide-MHC binding, purified MHC/direct/fluorescence; filed as Kd, often an IC50 or EC50 that approximates it; ≥ and ≤ were set here for values at or beyond the usual limits of such assays; conditions: source organism: West Nile virus
HLA-A*01:01 = assay: as above; conditions: source organism: Giardia lamblia ATCC 50803
HLA-A*03:01 [11] = assay: as above; conditions: source organism: Giardia lamblia ATCC 50803
HLA-A*11:01 [12] = assay: as above; conditions: source organism: Giardia lamblia ATCC 50803
HLA-A*26:01 = assay: as above; conditions: source organism: Giardia lamblia ATCC 50803
HLA-A*69:01 = assay: as above; conditions: source organism: Giardia lamblia ATCC 50803
HLA-B*40:01 = assay: as above; conditions: source organism: Giardia lamblia ATCC 50803
HLA-B*58:01 = assay: as above; conditions: source organism: Giardia lamblia ATCC 50803
[13] = source organism: Vaccinia virus Copenhagen
[14] = source organism: Vaccinia virus WR
[15] = source organism: Dengue virus 4 Philippines/H241/1956
[16] = source organism: Sudan ebolavirus
[17] = source organism: Dengue virus 3 Martinique/1243/1999
[18] = source organism: Trypanosoma cruzi
[19] = source organism: Giardia lamblia ATCC 50803

Sequence: KDAWLSLPK
Kd (HLA-A*03:01 [1]; source organism: Vibrio cholerae): ≥ 20000 nM

Sequence: GPKVKYLYF
Kd (HLA-B*07:02 [2]): 15800 nM
Kd (HLA-B*35:01): ≥ 52000 nM
Kd (HLA-B*51:01): 13600 nM
Kd (HLA-B*53:01): ≥ 41000 nM
Kd (HLA-B*54:01): 10400 nM

Sequence: TLTSDDLLI
Kd (HLA-A*02:01 [3]; source organism: Lassa virus Josiah): 4170 nM

Sequence: LFMSHVKSV
Kd (HLA-A*02:01 [4]; [13]): 1750 nM
Kd (HLA-B*15:01; [13]): 15200 nM
Kd (HLA-B*08:01 [5]; [14]): 3.07 nM

Sequence: NNSWKFNSE
Kd (HLA-B*08:01 [5]; [14]): 129 nM

Sequence: HALNELPESL
Kd (HLA-B*08:01 [5]; [15]): 3740 nM

Sequence: YRYLRHGKL
Kd (HLA-B*08:01 [6]; source organism: SARS-CoV1): 104 nM
Kd (HLA-B*27:05; source organism: SARS-CoV1): 78.6 nM

Sequence: THNTPVYKL
IC50 (HLA-A*02:01 [7]): ≥ 735000 nM
IC50 (HLA-A*11:01 [8]; source organism: Zaire ebolavirus): 62400 nM
IC50 (HLA-A*24:02): 17600 nM

Sequence: VLDQIDKNK
IC50 (HLA-A*11:01 [8]; [14]): ≥ 71200 nM

Sequence: PENITTAVK
IC50 (HLA-A*11:01 [8]; [16]): ≥ 178000 nM

Sequence: IKLTVVVGDI
Kd (HLA-B*08:01 [5]; [17]): 1050 nM

Sequence: LLILCVTQVL
Kd (HLA-B*08:01 [5]; source organism: Dengue virus 2 Jamaica/1409/1983): 979 nM

Sequence: NKKRFFSDV
Kd (HLA-B*08:01 [5]; [14]): 8720 nM

Sequence: ELLRPTTVV
Kd (HLA-A*02:01 [3]; [18]): 6710 nM
Kd (HLA-A*02:02; [18]): 6010 nM
Kd (HLA-A*02:03): 1200 nM
Kd (HLA-A*02:06; [18]): 1880 nM
Kd (HLA-A*68:02; [18]): 91.8 nM

Sequence: KFFPSSSYRR
Kd (HLA-A*03:01 [1]; source organism: Influenza A virus (A/Fort Monmouth/1/1947-mouse adapted(H1N1))): 4320 nM

Kd (HLA-B*07:02 [9]; source organism: Ovis aries): 418 nM
Kd (HLA-A*02:01 [10]): ≥ 20000 nM
Kd (HLA-B*27:03): ≥ 20000 nM
Sequence: RVLTARKTV

Sequence: LLLMRTTWA
Kd (HLA-B*08:01 [5]; [15]): 18.5 nM

Sequence: RAAGLQDCT
Kd (HLA-A*02:01 [3]; source organism: Hepatitis C virus (isolate 1)): ≥ 50000 nM

Sequence: LSNTTGRLI
IC50 (HLA-A*11:01 [8]; [16]): 55500 nM

Sequence: AMFEEQNQW
Kd (HLA-B*46:01): ≥ 20000 nM

Sequence: ILIEGIFFV
Kd (HLA-A*02:01 [3]; source organism: Human alphaherpesvirus 3): 0.03 nM

Sequence: IKRRLRTLIL
Kd (HLA-B*08:01 [5]; [17]): 185 nM

Kd (HLA-A*02:01 [3]; source organism: Homo sapiens): 558 nM
Kd (HLA-A*02:02; source organism: Homo sapiens): 117 nM
Kd (HLA-A*02:06; source organism: Homo sapiens): 40.5 nM
Kd (HLA-A*68:02; source organism: Homo sapiens): 2.06 nM
Sequence: ELQAALARV

Sequence: MVYKLWFKY
Kd (HLA-A*03:01 [1]; source organism: Entamoeba dispar SAW760): 14100 nM

Sequence: SLNRNFTLV
Kd (HLA-A*02:01 [3]; [18]): 23.6 nM
Kd (HLA-A*02:02; [18]): 0.143 nM
Kd (HLA-A*02:03): 0.0957 nM
Kd (HLA-A*02:06; [18]): 0.69 nM
Kd (HLA-A*68:02; [18]): 227 nM

Sequence: YTDDYPMYK
Kd (HLA-A*01:01): 18.9 nM
Kd (HLA-A*02:01 [4]; [19]): ≥ 20000 nM
Kd (HLA-A*03:01 [11]): 359 nM
Kd (HLA-A*11:01 [12]): 40 nM
Kd (HLA-A*26:01): ≥ 20000 nM
Kd (HLA-A*69:01): 126 nM
Kd (HLA-B*07:02 [9]; [19]): ≥ 20000 nM
Kd (HLA-B*08:01 [6]; [19]): ≥ 20000 nM
Kd (HLA-B*15:01; [19]): ≥ 20000 nM
Kd (HLA-B*27:05; [19]): ≥ 20000 nM
Kd (HLA-B*40:01): ≥ 20000 nM
Kd (HLA-B*58:01): ≥ 20000 nM

Sequence: EARVEFGPL
Kd (HLA-B*08:01 [5]; [14]): 177 nM

From the Immune Epitope Database (IEDB)
